The record followed here is publication PMC8148087.

Read-outs that look alike come from different tables or passages of the source.

The target in experiment [1] is FAM-HLA (model peptide HLA attached to a FAM fluorophore). As to the kind of experiment: fluorescence polarisation.
The target is the same in experiment [2]. As to the kind of experiment: fluorescence polarisation. The source holds these as a separate data set. For orientation: Polarisation of emitted light reports the rotation of a fluorescent probe.

For “E. coli DnaK Y145A (from UniProt P0A6Y8 1-638) (natural protein)”, the dissociation constant (Kd) (as a rule, the constant that tells how readily two partners part at equilibrium) in experiment [1] was greater than 30 µM; in experiment [2], 9 µM.
Consider “E. coli DnaK Y145W (from UniProt P0A6Y8 1-638) (natural protein)”, for which the Kd in experiment [1] is 4 µM; in experiment [2] it was 8 µM.
For “E. coli DnaK, wild type (from UniProt P0A6Y8 1-638) (natural protein)” the same measures were greater than 30 µM and 9 µM.
In experiment [1], “human Hsc70 Y149A (from UniProt P11142 1-646) (natural protein)” returned a dissociation constant Kd of 4 µM.
For the substance “human heat shock cognate protein 70 (Hsc70), wild type (from UniProt P11142 1-646) (natural protein)”, the equilibrium dissociation constant (Kd) came to 26 µM in experiment [1] and 5 µM in experiment [2].
